Assay [1] concerns the target NT receptor NTSR1 (high affinity NTSR1 receptor) on HT29 cells (human) (UniProt P30989). Description: competition with [3H]-NT on HT29 cells expressing NTSR1.
Assay [2] deals with T1, NT receptor NTSR1 (high affinity NTSR1 receptor) on HT29 cells (human, UniProt P30989 1-418).
T1 construct: whole, on cells; also called neurotensin receptor type 1; NTR1
The description is as above.

Square brackets hold non-standard residues; d marks the D form. pGlu = O=C1CC[C@@H](C(=O)O)N1

This is an account of results in patent US20100256055A1 (ANGIOCHEM, published 2010).

T1 sequence (P30989 whole entry): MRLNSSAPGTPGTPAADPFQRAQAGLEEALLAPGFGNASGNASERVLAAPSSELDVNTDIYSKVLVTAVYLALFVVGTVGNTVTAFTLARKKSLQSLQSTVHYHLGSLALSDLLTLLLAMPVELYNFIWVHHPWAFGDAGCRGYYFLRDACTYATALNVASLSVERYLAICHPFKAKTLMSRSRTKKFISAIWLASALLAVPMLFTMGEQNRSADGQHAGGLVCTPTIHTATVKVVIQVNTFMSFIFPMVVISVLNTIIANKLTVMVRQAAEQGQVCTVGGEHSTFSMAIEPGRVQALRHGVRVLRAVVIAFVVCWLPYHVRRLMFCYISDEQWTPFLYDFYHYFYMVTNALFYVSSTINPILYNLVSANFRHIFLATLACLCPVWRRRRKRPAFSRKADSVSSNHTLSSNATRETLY
Chain of NT receptor NTSR1 (high affinity NTSR1 receptor) on HT29 cells (human) (P30989 whole entry): as above

In assay [1], “Ac-Lys-[D-Tyr^11]NT(8-13) (Ac-KRRPD-YIL-OH) (peptide)” registered an IC50 of 5390 nM and a fold weaker binding than native NT above 1000 fold.

B1: Ac-LysNT(8-13) (peptide)
peptide: Ac-KRRPYIL-OH
notes: Structure printed only as drawing CHEM-US-00004; The chain is built from the name, and Mw 987.20 fits Ac-KRRPYIL
Molecule B1 displayed a half-inhibitory concentration (IC50) in assay [2] of 1 nM.

B2: pGlu-LysNT(8-13) (peptide)
peptide: [pGlu]KRRPYIL-OH
SMILES: CC[C@H](C)[C@H](NC(=O)[C@H](Cc1ccc(O)cc1)NC(=O)[C@@H]1CCCN1C(=O)[C@H](CCCNC(=N)N)NC(=O)[C@H](CCCNC(=N)N)NC(=O)[C@H](CCCCN)NC(=O)[C@@H]1CCC(=O)N1)C(=O)N[C@@H](CC(C)C)C(=O)O
notes: Structure printed only as drawing CHEM-US-00006; The chain is built from the name, and Mw 1056.26 fits pGlu-KRRPYIL; also called pE-Lys-NT(8-13); pGlu-NT(8-13)
As to B2, the IC50 in assay [2] came to 1.3 nM.

A word on the IC50: it is the concentration at which inhibition is half-maximal. A low value points to higher potency.
